Test results reported in patent US9206239B2, “Treatment of cancers with immunostimulatory HIV Tat derivative polypeptides” (PIN Pharma, Inc., priority 2009, dated 2015).
Entries after “also recorded” stand apart in the source; their conditions may differ.

Tests used:
[1] = test system: 4T1 breast tumor cells; assay: 4T1 breast tumor growth in BALB/c mice; format: in vivo
[2] = test system: 4T1 breast tumors; assay: Kaplan-Meier survival of mice bearing 4T1 breast tumors; format: in vivo, BALB/c mice; details: for survival: day 47
Method: BALB/c were injected (SC) with 1×10^4 4T1, 1×10^5 TS/A or 2×10^5 SM1 cells, respectively, in the left mammary pad on day 0. Immunotherapy was performed by directly injecting a Tat derivative into the right flank at 0, 7, 12, and 17 days after establishment of tumors. The control group received PBS injection. […] Tumor burden (tumor volume) was measured and recorded three times weekly. Animals were sacrificed when tumors reached a volume of 15 mm in diameter and the tumors harvested and weighed.
Data were statistically analyzed using Student's t-test (Graph Pad Prism version 5; GraphPad). Data from animal survival experiments were statistically analyzed using log-rank test (Graph Pad Prism version 5).
To determine whether Nani-P2 treatment could extend survival in addition to shrinking primary tumors in mice, treatment protocols using various dosing schedules and routes (SC, IV or IT) of administration of 40 ng Nani-P2 were performed. Cohorts of ten mice per group were followed for length of survival, as assessed by use of the Kaplan-Meier product limit method. As per Columbia University Medical Center Animal Facility regulations, each mouse was euthanized at a mean tumor diameter of approximately 15 mm, or earlier if the mouse became moribund, making one of these two outcomes the defining criteria for fatality.

[3] = test system: IFN-γ production by spleen cells; assay: ELISA analysis of IFN-γ production by immune spleen cells of 4T1 tumor-bearing mice; format: in vivo, BALB/c mice
Method: FIG. 7 depicts INF-γ production from spleen cells of mice bearing 4T1 breast tumors. BALB/c mice were injected SC with 1×10^4 4T1 cells. Control animals received weekly injections of PBS, while the Nani-P2 treatment comprised once weekly SC injections (40 ng) initiated at day 0 and continued for 4 weeks. On day 33, when control mice were at endstage, the mice were sacrificed, the spleens harvested and frozen as single cell suspensions until time of assay. Spleen cells (2×10^5) and 1×10^4 mitomycin C-treated (50 μg/ml for 30 min) 4T1 stimulator cells (S) were plated into 96-well plates. After 72 hr of stimulation, the supernatants were collected and IFN-γ concentration was determined using a commercial IFN-γ ELISA kit. […] 1: no restimulation; 2: IL-4 (50 ng/ml)/GM-CSF ([…]); 3: stimulator cells/IL-4/GM-CSF; 4: stimulator cells only.
Splenocyte secretion of IFN-γ was assessed by an OPTEIA® ELISA kit (BD Biosciences). Briefly, spleen cells (1×10^5/well) from 4T1 tumor-bearing mice were cultured with or without 5×10^3/well mitomycin C (50 μg/ml)-treated 4T1 cells (used to provide tumor antigens) in DMEM in at a 20:1 E:T (effector:tumor) ratio with […] (50 ng/mL) and GM-CSF (100 ng/ml) in 96-well plates. Supernatants were collected after 72 hr and kept frozen at −80° C. until analysis without loss of activity. IFN-γ was measured in cell-free supernatants of duplicate wells by ELISA according to the manufacturer's instructions. Tumor-specific IFN-γ production was calculated by subtracting the background values measured in supernatants of spleen cells cultured with medium alone and optical density (OD) values were converted to pg/ml amounts of IFN-γ using a recombinant IFN-γ standard curve. Stimulation index (SI) was calculated as the ratio of IFN-γ in stimulated versus control cultures.
To determine whether cytotoxic T-lymphocytes play a role in tumor rejection induced by Nani-P2 therapy, an IFN-γ ELISA assay (FIG. 7) was performed to compare spleen cells of 4T1 tumor-bearing mice treated either without (Control) or with Nani-P2 (FIG. 7). […]

[4] = test system: 4T1 lung metastases; assay: Detection of 4T1 lung metastases; format: in vivo, BALB/c mice; details: treated IV, established 4T1 tumors; p<0.01 vs PBS
Excerpt: Lungs were examined for 4T1 metastases as previously described (Pulaski B. et al. Cancer Res. 60:2710-2715, 2000). Primary 4T1 tumors that have been established for 2-3 weeks in BALB/c mice metastasize to the lungs in a very large majority of animals. Briefly, mice were sacrificed according to IACUC guidelines established at the start of the trials, the lungs removed, and tumor nodules on the surface of the lungs were enumerated with the naked eye by two independent investigators blinded to the treatment protocols.
To further investigate the efficacy of Nani-P2 against established and metastatic breast cancer, 4T1 cells were injected SC in the abdominal mammary gland of mice and treatment was delayed until such time that the tumors had metastasized to the lungs and averaged 3.5 mm in size (FIG. 8A, day 13), corresponding to a 2.4 cm or stage T2 human breast tumor. Mice were followed for tumor growth (FIG. 8A) and lung metastases (FIG. 8B). […] This corresponded to a less aggressive appearance of primary tumor, as well as lung metastases that were on average much smaller in size (FIG. 8B).

[5] = test system: 4T1 cells; assay: Repeated dosing of Nani-P2 alternating with cyclophosphamide in 4T1 tumor-bearing mice; format: in vivo, BALB/c mice
Method: Four groups of 10 BALB/c mice were implanted with 1×10^4 4T1 cells SC into the mammary fat pad. Treatment was initiated when tumor diameters reached 4-5 mm, on day 10. Control mice were injected IV with PBS at 3 days intervals, while alternating treatment mice received 3 doses of drug every 3 days in rotating 10 day cycles. Tumor burden (tumor size mm^3) was calculated using a standard formula. CY: (cyclophosphamide alone) mice were injected IP weekly with 80 mg/kg per mouse beginning on day 10. Cy/Nani-P2: (cyclophosphamide first followed by Nani-P2) mice were first injected IP with cyclophosphamide (80 mg/kg) at 3 days intervals for three doses starting at day 10 and then injected IV with Nani-P2 (40 ng) at 3 days intervals for three doses in rotation. The cycle of 3 doses of CY followed by 3 doses of Nani-P2 was repeated until day 50. Nani-P2/CY: (Nani-P2 first followed by cyclophosphamide): mice were first injected IV with Nani-P2 (40 ng) at 3 day intervals for 3 doses starting on day 10 and then injected i.p. with cyclophosphamide at 3 day intervals in rotation. The cycle of 3 doses of Nani-P2 followed by 3 doses of CY was repeated until day 50.

[6] = day 50, Nani-P2 alternating with cyclophosphamide

B1: Nani-P2: HIV Tat derivative polypeptide, SEQ ID NO: 3; derivatized Tat amino terminus from an African Green Monkey variant SIV (protein)
chain: MDPKGEEDQDVSHQDLIKQYRKPRTACNNCYCKKCCFHCYACFLRKGLGITYHAFRTRRKKIASADRIPVPQQSISIRGRDSQTTQESQKKVEEQAKANLRISRKNLGDETRGPVGAGN
modifications: Nani-P2 modified HIV Tat sequence
notes: derivatized Tat amino terminus from an African Green Monkey variant SIV
difference in mean tumor volume vs control group ([1]; 4 ng or 40 ng per mouse, four times over 21 days): highly significant
primary tumor burden vs PBS control, established tumors ([1]; 40 ng IV weekly for three weeks from day 14, trial 50 days, p<0.01): statistically significant benefit in primary tumor suppression; also recorded: highly significant
animals with complete remission, disease-free ([1]; 40 ng IV weekly x3 from day 14, at 50 days): 1/10 and One of 10
mice with regression of tumor at the initial treatment ([1]; 40 ng IV, initial treatment on day 14): 7/10
decrease of tumor burden on average at maximal effect ([1]; SC therapy begun on day 13, tumors about 5 mm in diameter): 52%
breast tumor growth inhibitory effect on 4T1 tumors ([1]; highly-purified, SC, 0.4 ng to 40 ng per dose): dose-dependent
survival, intratumoral administration ([2]; IT, 40 ng weekly x3, tumors established fourteen days): slightly inferior to SC administration
survival ([2]; IV, 40 ng weekly x3, tumors established fourteen days, p<0.005): 60%
survival ([2]; SC, 40 ng weekly x3, tumors established fourteen days, p<0.05): 20%
treated mice still alive ([2]; day 48, 40 ng SC, 4 doses over 21 days from day 0, p<0.001): 35%
duration of tumor growth inhibition and survival benefits past the last dosing ([2]; established 4T1 tumors, treated intravenously): at least 36 days
baseline levels of INF-γ secreted by splenocytes vs PBS-treated control mice ([3]; 40 ng SC weekly for 4 weeks, no restimulation): 8 fold
INF-γ production in cultures of spleen cells vs control ([3]; all conditions of assay): significantly (p<0.01**) higher
stimulation index vs control ([3]; tumor stimulators + IL4 + GM-CSF added at initiation of culture): 53
average number of grossly visible tumor nodules in the lungs [4]: seven
survival benefit vs weekly cyclophosphamide ([5]; Nani-P2 bolus treatment alternating with cyclophosphamide, p=0.0001): highly statistically significant
mice in partial remission [5, 6]: 9/10
mice in total remission [5, 6]: 3/10
